Numbering of substitutions follows the chain as printed. Names may count otherwise. One block for each binder: values may come before it.
Columns and labels:
His-tagged CEACAM1 = biological target: T1, His-tagged CEACAM1 (human, UniProt P13688 35-428); test: SPR single-cycle, supernatant IgG captured
T1 construct: 45 kDa SPR analyte; also called CEACAM1-HIS; CEACAM1 analyte
T1 sequence: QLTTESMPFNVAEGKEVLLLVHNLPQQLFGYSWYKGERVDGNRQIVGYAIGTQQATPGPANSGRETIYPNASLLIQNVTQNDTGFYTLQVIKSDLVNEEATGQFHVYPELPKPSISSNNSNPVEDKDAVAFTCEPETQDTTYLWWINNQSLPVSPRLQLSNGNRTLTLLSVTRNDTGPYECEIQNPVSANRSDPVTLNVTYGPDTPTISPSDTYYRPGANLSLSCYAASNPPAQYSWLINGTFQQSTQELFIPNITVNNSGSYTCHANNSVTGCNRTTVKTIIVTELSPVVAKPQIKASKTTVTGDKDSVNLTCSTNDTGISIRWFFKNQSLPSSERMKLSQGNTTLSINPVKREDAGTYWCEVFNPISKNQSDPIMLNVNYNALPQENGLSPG
Summary of the method: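 Humanized, affinity-matured IgGs from crude supernatant (0.5 μg/ml in HBS-P+) captured on Protein A to ~100 RU. Single-cycle kinetics: CEACAM1 at three concentrations, 70–280 nM two-fold, 80 μl/min, 80 s association each, 150 s dissociation. Reference-channel and blank-run subtraction applied.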

[1] = biological target: T2, CEACAM3 on transfected HeLa cells (human, UniProt P40198 35-252); test: flow cytometry, HeLa-CEACAM3 transfectants, % staining, stacked bars
T2 construct: whole, on cells; also called HeLa-CEACAM3; HeLa C3
T2 sequence (looked up): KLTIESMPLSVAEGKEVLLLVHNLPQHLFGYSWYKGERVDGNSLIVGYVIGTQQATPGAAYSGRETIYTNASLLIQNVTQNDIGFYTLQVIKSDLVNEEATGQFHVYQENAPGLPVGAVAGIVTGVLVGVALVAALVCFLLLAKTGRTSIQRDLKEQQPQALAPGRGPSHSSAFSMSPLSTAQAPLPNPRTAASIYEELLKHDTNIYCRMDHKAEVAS
Text: FIG. 11 illustrates the binding selectivity of different affinity-matured CEACAM1 antibodies. […] HELA cells were transfected with vector alone (HeLa-Neo) or vectors expressing CEACAM1, CEACAM3, CEACAM5, or CEACAM6, respectively, and stained with the indicated antibodies. […] MOPC=mouse IgG1 control antibody. Mouse antibodies as positive control for transfected CEACAM isoforms: Col-1=CEACAM3 and CEACAM5 antibody. 9A6=CEACAM6 antibody. T84.1=CEACAM cross-reactive antibody and T84.66=CEACAM5 antibody. Only 2nd FITC=No primary antibody, only secondary FITC conjugated antibody. […] Data for affinity-matured antibodies 9B3_8H3/Vκ8 S29A, 8H3_9B3/CP08_E05, and 8H3_9C2/CPO08_F05, as well as data for CEACAM8 antibody 80H3 were omitted from the FIG. due to an unusually high background signal.

[2] = biological target: T3, CEACAM5 (recombinant protein) (human, UniProt P06731 35-685); test: SPR single-cycle kinetics, antibody captured on Protein A, CEACAM-5 injected at three rising concentrations [Cont.]
T3 construct: construct not described
T3 sequence (looked up): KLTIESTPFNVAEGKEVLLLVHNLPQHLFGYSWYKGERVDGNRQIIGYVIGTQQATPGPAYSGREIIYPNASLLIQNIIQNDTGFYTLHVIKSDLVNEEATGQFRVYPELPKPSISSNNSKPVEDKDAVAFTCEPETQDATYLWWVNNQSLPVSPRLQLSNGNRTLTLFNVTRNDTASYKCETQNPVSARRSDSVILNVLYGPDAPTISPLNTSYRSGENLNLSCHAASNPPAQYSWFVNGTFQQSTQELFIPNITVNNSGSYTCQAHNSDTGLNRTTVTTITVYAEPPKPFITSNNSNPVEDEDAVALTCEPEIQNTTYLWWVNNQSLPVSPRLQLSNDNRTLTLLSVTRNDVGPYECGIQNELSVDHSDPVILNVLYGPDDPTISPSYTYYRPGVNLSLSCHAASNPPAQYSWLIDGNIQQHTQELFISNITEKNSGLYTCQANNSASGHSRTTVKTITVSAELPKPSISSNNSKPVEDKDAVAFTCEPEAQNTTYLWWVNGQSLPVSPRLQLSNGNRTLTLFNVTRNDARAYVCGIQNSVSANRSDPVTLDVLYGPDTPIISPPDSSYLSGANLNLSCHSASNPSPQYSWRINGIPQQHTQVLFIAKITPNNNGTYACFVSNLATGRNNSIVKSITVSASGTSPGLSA
Experimental: In order to assess the binding of the humanized, affinity matured reformatted lead IgGs, single-cycle kinetics analysis was performed on crude supernatants using a Biacore T200 running Biacore T200 Control Software V2.0.1 and Biacore T200 Evaluation Software V3.0. Antibodies were diluted in HBS-P+ to a final concentration of 0.5 μg/ml. At the start of each cycle, antibodies were loaded onto Fc2, Fc3 and Fc4 of the Protein A chip. IgGs were captured at a flow rate of 10 μl/min to give an immobilisation level (RL) of ˜100 RU (a level calculated to obtain a Rₘₐₓ of ˜50-150 RU once the analyte is bound). The surface was then allowed to stabilize. Single-cycle kinetics data was obtained with CEACAM1 as the analyte at a flow rate of 80 μl/min to minimize any potential mass transfer effects. Multiple repeats with the parent (VH1/Vκ8 S29A) antibody were performed to check the stability of the surface and analyte over the kinetic cycles. The signal from the reference channel Fc1 (no antibody) was subtracted from that of Fc2, Fc3 and Fc4 to correct for differences in non-specific binding to the reference surface. […] The association phase for the three injections of increasing concentrations of CEACAM1 was monitored for 80 seconds each time and a single dissociation phase was measured for 150 seconds following the last injection of CEACAM1. […]

- Kd (His-tagged CEACAM1): 590 nM
- koff (His-tagged CEACAM1): 0.057 s⁻¹
- kon (His-tagged CEACAM1): 95000 M⁻¹ s⁻¹
- relative KD to parent (His-tagged CEACAM1): 1
- binding result [1]: no binding
B1: VH1/Vκ8 S29A (antibody, IgG4, V domains shown)
VH: EVQLLESGGGLVQPGGSLRLSCAASGFIFSSHGMSWVRQAPGKGLEWVATISSGGTYTYYPDSVKGRFTISRDNSKNTLYLQMNSLKAEDTAMYYCARHDFDYDAAWFAYWGQGTLVTVSS
VL: EIVLTQSPATLSLSPGERATLSCRANSAVSYMYWYQQKPGQAPRPWIYLTSNRATGVPARFSGSGSGTDYTLTISSLEPEDFAVYYCQQWSSNPPTFGQGTKLEIK
notes: IgG4 (S241P), kappa; also called Parent; Parent (VH1/Vκ8 S29A)

- Kd (His-tagged CEACAM1): 45 nM
- koff (His-tagged CEACAM1): 0.0076 s⁻¹
- kon (His-tagged CEACAM1): 180000 M⁻¹ s⁻¹
- relative KD to parent (His-tagged CEACAM1): 13.7
- binding result [2]: no binding
B2: CP08H03/Vκ8 S29A (antibody, IgG4, V domains shown)
VH: B1 VH with D104F, A105P, A106Y, Y110H
VL: B1 VL
notes: IgG4 (S241P), kappa; also called CP08_H03/Parent VL; CP08_H03/Parental

- binding result [1]: no binding
- binding result [2]: no binding
B3: CP08H03/CP08F05 (antibody, V domains shown)
VH: B1 VH with D104F, A105P, A106Y, Y110H
VL: B1 VL with S91T
notes: IgG4 (S241P), kappa

From US20250074980A1 (BRIGHAM AND WOMEN S HOSPITAL, published 2025)
